Article PMC12699829, “Development of a glutamine-responsive MRI contrast agent” (Chemical Science, 2025)
Changes are numbered by the printed parent chain. Names may count otherwise. Where two headings read alike, the source gives them in different places.

B1: [Gd(DOTA-mal^N)]72: swArM: Gd(DOTA-mal^N) metallocofactor covalently attached at Cys72 of T72C E. coli glutamine-binding protein (GlnBP) (conjugate, UniProt P0AEQ3 23-248, looked up, variant T72C)
Glutamine-binding periplasmic …: ADKKLVVATDTAFVPFEFKQGDKYVGFDVDLWAAIAKELKLDYELKPMDFSGIIPALQTKNVDLALAGITICDERKKAIDFSDGYYKSGLLVMVKANNNDVKSVKDLDGKVVAVKSGTGSVDYAKANIKTKDLRQFPNIDNAYMELGTNRADAVLHDTPNILYFIKTAGNGQFKAVGDSLEAQQYGIAFPKGSDELRDKVNGALKTLRENGTYNEIYKKWFGTEPK
modifications: Gd(DOTA-malN) at Cys72
B2: [Gd(DOTA-malN)]72-Q183K: swArM: Gd(DOTA-mal^N) on T72C/Q183K double variant of GlnBP (conjugate, UniProt P0AEQ3 23-248, looked up, variant T72C Q183K)
Glutamine-binding periplasmic …: B1 Glutamine-binding periplasmic … with Q183K
modifications: Gd(DOTA-malN) at Cys72
notes: swArM: Gd(DOTA-mal^N) on T72C/Q183K double variant of GlnBP
B3: [Dy(DOTA-mal^N)]72-N127Y: swArM: Dy(DOTA-mal^N) on T72C/N127Y double variant of GlnBP (conjugate, UniProt P0AEQ3 23-248, looked up, variant T72C N127Y)
Glutamine-binding periplasmic …: B1 Glutamine-binding periplasmic … with N127Y
modifications: Dy(DOTA-malN) at Cys72
notes: swArM: Dy(DOTA-mal^N) on T72C/N127Y double variant of GlnBP
B4: [Dy(DOTA-mal^N)]72: swArM: Dy(DOTA-mal^N) attached at Cys72 of T72C-GlnBP (conjugate, UniProt P0AEQ3 23-248, looked up, variant T72C)
Glutamine-binding periplasmic …: B1 Glutamine-binding periplasmic …
modifications: Dy(DOTA-malN) at Cys72
notes: swArM: Dy(DOTA-mal^N) attached at Cys72 of T72C-GlnBP
B5: [Gd(DTPA-malN)]72: swArM: Gd complex of maleimide-functionalized DTPA attached at Cys72 of T72C-GlnBP (conjugate, UniProt P0AEQ3 23-248, looked up, variant T72C)
Glutamine-binding periplasmic …: B1 Glutamine-binding periplasmic …
modifications: Gd(DTPA-mal) at Cys72
notes: swArM: Gd complex of maleimide-functionalized DTPA attached at Cys72 of T72C-GlnBP
B6: [Gd(NOTA)mal^N)]72-GlnBP: swArM: Gd complex of maleimide-functionalized NOTA attached at Cys72 of T72C-GlnBP (conjugate, UniProt P0AEQ3 23-248, looked up, variant T72C)
Glutamine-binding periplasmic …: B1 Glutamine-binding periplasmic …
modifications: Gd(NOTA-mal) at Cys72
B7: [Dy(DOTA-malN)]72-Q183Y: swArM: Dy(DOTA-mal^N) on T72C/Q183Y double variant of GlnBP (conjugate, UniProt P0AEQ3 23-248, looked up, variant T72C Q183Y)
Glutamine-binding periplasmic …: B1 Glutamine-binding periplasmic … with Q183Y
modifications: Dy(DOTA-malN) at Cys72
notes: swArM: Dy(DOTA-mal^N) on T72C/Q183Y double variant of GlnBP

What was measured:
Type in all cases: physicochemical
[1] = T1 and T2 relaxivity measurements at 9.4 T (400 MHz NMR); details: for Holo/Apo % r1 Change / Holo/Apo % r2 Change: 37 °C; for r1 (Holo) / r2 (Holo) / r1 (Apo) / r2 (Apo): PBS buffer pH 7.4, 37 °C; for r1 (Holo) / r2 (Holo): with Gln; for r1 (Apo) / r2 (Apo): without Gln
Procedure: The effectiveness of a contrast agent depends on its “relaxivity”, which is measured in units of mM^−1 s^−1, and quantifies how much a given concentration of the contrast agent improves water relaxation rates. T1 and T2 relaxivities are denoted r1 and r2, respectively, and are calculated according to eqn (1):1 [drawing 1] Here, Ti and Ti^0 are the relaxation times in the presence and absence of the contrast agent, respectively, and [C] is the concentration of the contrast agent. […] The relaxivity of a contrast agent depends not only on the properties of the molecule but also on the strength of the magnetic field used for the measurement. Whereas early MRI instruments were relatively weak (<1 T), the modern clinical standard has risen to 1–3 T, wth an increasing number of even more powerful instruments (>3 T) in recent years. Thus, we performed relaxivity experiments at both the most clinically relevant field strengths 1.4 T and at the more cutting-edge field strength of 9.4 T.
10% D 2O (assay buffer). S tock solutions of swArM in assay buffer was prepared at1.11, 0.83, 0.56, and 0.28 mM. Apo- and holo-swArM samples were prepared from the same stock by adding either 20 μL assay buffer or 20 μL 0. 1 M Gln in assay buffer, to 180 μL of protein solution, respectively. Final protein concentrations were verified using the molar extinction coefficient ε28 0 = 25.9 mM -1 cm -1.
B. NM R M easu r ements . Relaxivities of all variants were determined at 37 °C from spectra taken at 9.4 T (400 mHz) using a Varian Inova 400 -MHz NMR spectrometer equipped with a Nalorac, 5 mm, DR probe. Select variants were also investigated at 32°C at 1.4 T (60 mHz) using a Nanalysis NMReady60 Pro instrument. Measurements were typically performed on 4 diffe rent concentrations of contrast agent and on the same buffer with no contrast agent. Temperature- dependent relaxivity measurements were performed using a Varian Inova 500-MHz NMR spectrometer, equipped with a Vari an, 5-mm, TR PFG probe with inverse proton detection. Temperature- dependent relaxivity was determined using either two concen trations of contrast agent ( 0. 5 and 1. 0 mM ) or t hree (0. 3, 0. 6, and 0.9 mM) . The temperature was calibrated using the 1H NMR signal of ethylene glycol.20 T1 measurements were performed using the inversion recovery method21 and T2 measurements were performed using the Carr–Purcell–Meiboom –G ill (CPMG) p ulse […]
Six or more pulse delay times (τ) were chosen to ensure coverage of the Ti under observation, and the delay between pulse sequences was set to at least 5-times T1.
Optimized 90° and 180° pulse widths were determined on the day of the experiment, and typically spanned 16‒2 0 μs (90° pulse width) and 32‒4 0 μs (180° pulse width). The delay in the CPMG pulse sequence was set to at least 50 times the 180° pulse width to allow at least four echo loops .
C. A n al ysi s . To determine Ti, data were analyzed via MestReNova software. For each spectrum, an integration was performed over the water peak, and the values obtained (dependent variable) were plotted against τ (independent variable). […]
then fit to a monoexponential decay according to Eq. 1. From these analyses, we obtain Ti for each sample concentration and type.
The quantity described by Eq. 2, where Ti at zero added sample is T0, was then plotted against the swArM concentration and a linear regression model was applied. The slope of this line gives the contrast agent relaxivity ri.

[2] = T1 and T2 relaxivity measurements at 1.4 T (60 MHz NMR); details: for Holo/Apo % r1 Change / Holo/Apo % r2 Change: 32 °C; for r1 (Holo) / r2 (Holo) / r1 (Apo) / r2 (Apo): PBS buffer pH 7.4, 32 °C; for r1 (Holo) / r2 (Holo): with Gln; for r1 (Apo) / r2 (Apo): without Gln
[3] = Stability of swArM samples prepared in PBS buffer for relaxivity studies
From the text: Next, we set out to investigate alternative ligands to coordinate Ln^3+ ions. As shown in Chart 1, we investigated two DOTA derivatives (DOTA-mal^N and DOTA-mal^C) as well as an acyclic version of DOTA, diethylene triamine pentaacetic acid (DTPA), and a six-coordinate version of the eight-coordinate DOTA ligand, nonane triacetic acid (NOTA). […] This ligand has previously been tested with Gd^3+ as an MRI contrast agent in PBS buffer, with no reported stability issues.[40] The fact that conjugation to our protein decreased the kinetic stability of Gd(NOTA) exemplifies the impact of the specific protein environment.

[4] = listed as [Dy(DOTA-mal^N)]72-GlnBP

Molecule | Holo/Apo % r1 Change [1] | Holo/Apo % r2 Change [1] [%] | r1 (Holo) [1] [mM⁻¹ s⁻¹] | r2 (Holo) [1] [mM⁻¹ s⁻¹] | r1 (Apo) [1] [mM⁻¹ s⁻¹] | r2 (Apo) [1] [mM⁻¹ s⁻¹] | Holo/Apo % r1 Change [2] [%] | Holo/Apo % r2 Change [2] [%] | r1 (Holo) [2] [mM⁻¹ s⁻¹] | r1 (Apo) [2] [mM⁻¹ s⁻¹] | further results
B1 | –1 ± 2% | 20 ± 5 | 4.32 ± 0.07 | 43.2 ± 0.8 | 4.35 ± 0.07 | 36 ± 1 | 4 ± 2 | 11 ± 2 | 20.4 ± 0.3 | 19.5 ± 0.4 | r1 (Holo) ([1]; listed as [Gd(DOTA-malN)]72): 4.32 mM⁻¹ s⁻¹; r1 (Apo) ([1]; listed as [Gd(DOTA-malN)]72): 4.35 mM⁻¹ s⁻¹; r2 (Holo) [2]: 41.5 ± 0.4 mM⁻¹ s⁻¹; r1 (Holo) ([2]; listed as [Gd(DOTA-malN)]72): 20.4 mM⁻¹ s⁻¹; r2 (Apo) [2]: 37.2 ± 0.7 mM⁻¹ s⁻¹; r1 (Apo) ([2]; listed as [Gd(DOTA-malN)]72): 19.5 mM⁻¹ s⁻¹
B2 |  |  |  | 28.2 ± 0.8 |  | 30.9 ± 0.2 |  |  |  |  | 
B3 |  | 40 ± 7 |  | 9.1 ± 0.2 |  | 6.5 ± 0.3 |  |  |  |  | 
B4 | –1 ± 5% | 36 ± 3 | 0.37 ± 0.02 |  | 0.37 ± 0.01 | 6.83 ± 0.04 | 4 ± 5 | 40 ± 20 | 0.201 | 0.176 | r2 (Holo) [1, 4]: 9.3 ± 0.1 mM⁻¹ s⁻¹; r1 (Apo) ([1]; listed as [Dy(DOTA-malN)]72): 0.37 mM⁻¹ s⁻¹; r2 (Apo) [1, 4]: 6.86 ± 0.08 mM⁻¹ s⁻¹; r1 value ([1]; apo/holo not specified): below the practical detection limit
B5 | 3 ± 3% | 10 ± 10 | 4.14 ± 0.05 | 72 ± 4 | 4.0 ± 0.1 | 65 ± 4 | 7 ± 4 | 11 ± 6 | 17.8 | 16.7 | stability of the swArM in PBS buffer (metal loss, precipitate) [3]: did not observe loss of metal to solution over time; r2 (Holo) [2]: 30.3 ± 0.9 mM⁻¹ s⁻¹; r2 (Apo) [2]: 27 ± 1 mM⁻¹ s⁻¹
B6 |  |  |  |  |  |  |  |  |  |  | stability of the swArM in PBS buffer (metal loss, precipitate) ([3]; PBS buffer): precipitate formation
B7 |  | 29 ± 4 |  | 18.0 ± 0.4 |  | 14.0 ± 0.1 |  |  |  |  | 
